Results published in paper PMC5597257.

Columns and labels:
[1] = target: NbHUB1-GFP (Nicotiana benthamiana); test: FRET or BRET; FRET by acceptor photobleaching in epidermal cells of N. benthamiana leaves; EGFP/GFP fusion as donor, DsRed fusion as acceptor; FRET efficiency (EF) in percent; without ChiLCV
[2] = target: Rep-DsRed (Chilli leaf curl virus); test: FRET or BRET; FRET by acceptor photobleaching in epidermal cells of N. benthamiana leaves, in the presence of ChiLCV, Rep proteins organised as punctate bodies
[3] = target: NbUBC2-DsRed (Nicotiana benthamiana); test: FRET or BRET; FRET by acceptor photobleaching in epidermal cells of N. benthamiana leaves; EGFP/GFP fusion as donor, DsRed fusion as acceptor; FRET efficiency (EF) in percent; without ChiLCV
[4] = target: NbUBC2-EGFP (Nicotiana benthamiana); test: as above

Rep-DsRed (natural protein) was tested, and the FRET efficiency [1] was 58.7%.
Substance Rep-EGFP (natural protein) has an FRET efficiency in the presence of ChiLCV [2] of 68.7% and an FRET efficiency [3] of 43.7%.
For Rep_(1-120)-DsRed (domain or fragment), the FRET efficiency [1] was 45% and the FRET efficiency [4] was 38%.
Rep_(1-180)-DsRed (domain or fragment) gave an FRET efficiency [1] of 44% and an FRET efficiency [4] of 40.5%.
“Rep_(181-361)-DsRed (domain or fragment)” was tested, and the FRET efficiency [1] was 58.5%.
